From PMC7948760, “Regulation of factor V and factor V-short by TFPIα: Relationship between B-domain proteolysis and binding” (The Journal of Biological Chemistry, 2021) come the findings set out here.

Details in all cases: both partners purified
Experiment [1] has as its target T1, FV-short-QQ (FV-short with Arg709 and Arg1545 replaced with Gln) (human).
T1 construct: coagulation factor V, FV-short with both thrombin cleavage sites changed to Gln, not cleaved by thrombin; source: BHK cells, purified
Description: fluorescence polarisation; competition: unlabeled TFPIα-BR (0–2 μM) or TFPIα (0–1 μM) titrated into 25 nM OG488-TFPIα-BR, 20 nM FV-short-QQ and 50 μM PCPS, assay buffer, 25 °C; stoichiometry of 1 assumed. A general note: Polarisation of emitted light reports the rotation of a fluorescent probe.

The target in experiment [2] is T2, FV-short (factor V isoform with B-domain residues 756 to 1458 deleted) (human).
T2 construct: coagulation factor V, splicing isoform FV-short, single chain, lacks the BR and retains AR2; source: BHK cells, purified
In words: inhibition of prothrombinase (prothrombin activation assay); 0.1 nM cofactor species, 50 μM PCPS, 1.4 μM prothrombin, 3 μM DAPA, TFPIα-BR 0–7 μM, started with 2 nM FXa, assay buffer, 25 °C; Ki from the equation for competitive inhibition.

In experiment [3] the target is T1, FV-short-QQ (FV-short with Arg709 and …). Described as above.
For experiment [4], the target named is T3, FV-short-RQ∗ (FV-short-RQ precleaved at Arg709 with thrombin) (human, UniProt P12259 29-737; P12259 738-2224, Δ756–1458 | Arg^1545 replaced with Gln).
T3 construct: coagulation factor V heavy chain (HC), released by cleavage at Arg709; coagulation factor V, rest of the shortened B-domain with AR2 joined to the light chain; also called FV-short cleaved at Arg709; source: FV-short-RQ (BHK cells, purified), 300 nM incubated with 2 nM thrombin 30 min at 37 °C, quenched with hirudin
T3 sequence (looked up) 1: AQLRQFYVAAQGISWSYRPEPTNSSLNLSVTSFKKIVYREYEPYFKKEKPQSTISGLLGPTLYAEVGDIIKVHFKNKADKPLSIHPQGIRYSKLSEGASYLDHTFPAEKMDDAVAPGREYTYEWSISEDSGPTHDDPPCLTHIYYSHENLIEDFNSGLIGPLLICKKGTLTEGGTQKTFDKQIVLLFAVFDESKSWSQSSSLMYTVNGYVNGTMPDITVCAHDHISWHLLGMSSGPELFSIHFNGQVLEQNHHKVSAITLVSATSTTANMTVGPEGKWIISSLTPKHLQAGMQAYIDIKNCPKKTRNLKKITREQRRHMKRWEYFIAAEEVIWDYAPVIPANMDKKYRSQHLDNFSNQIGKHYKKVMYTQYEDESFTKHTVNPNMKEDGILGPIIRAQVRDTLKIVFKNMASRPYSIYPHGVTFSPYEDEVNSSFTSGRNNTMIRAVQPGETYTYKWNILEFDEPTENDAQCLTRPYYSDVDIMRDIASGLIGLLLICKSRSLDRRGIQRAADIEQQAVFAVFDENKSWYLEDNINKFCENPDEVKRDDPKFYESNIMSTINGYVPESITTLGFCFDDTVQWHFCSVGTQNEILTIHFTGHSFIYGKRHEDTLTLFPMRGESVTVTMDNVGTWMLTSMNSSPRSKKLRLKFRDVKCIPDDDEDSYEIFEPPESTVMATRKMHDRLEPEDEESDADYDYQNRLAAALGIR
T3 sequence (looked up) 2: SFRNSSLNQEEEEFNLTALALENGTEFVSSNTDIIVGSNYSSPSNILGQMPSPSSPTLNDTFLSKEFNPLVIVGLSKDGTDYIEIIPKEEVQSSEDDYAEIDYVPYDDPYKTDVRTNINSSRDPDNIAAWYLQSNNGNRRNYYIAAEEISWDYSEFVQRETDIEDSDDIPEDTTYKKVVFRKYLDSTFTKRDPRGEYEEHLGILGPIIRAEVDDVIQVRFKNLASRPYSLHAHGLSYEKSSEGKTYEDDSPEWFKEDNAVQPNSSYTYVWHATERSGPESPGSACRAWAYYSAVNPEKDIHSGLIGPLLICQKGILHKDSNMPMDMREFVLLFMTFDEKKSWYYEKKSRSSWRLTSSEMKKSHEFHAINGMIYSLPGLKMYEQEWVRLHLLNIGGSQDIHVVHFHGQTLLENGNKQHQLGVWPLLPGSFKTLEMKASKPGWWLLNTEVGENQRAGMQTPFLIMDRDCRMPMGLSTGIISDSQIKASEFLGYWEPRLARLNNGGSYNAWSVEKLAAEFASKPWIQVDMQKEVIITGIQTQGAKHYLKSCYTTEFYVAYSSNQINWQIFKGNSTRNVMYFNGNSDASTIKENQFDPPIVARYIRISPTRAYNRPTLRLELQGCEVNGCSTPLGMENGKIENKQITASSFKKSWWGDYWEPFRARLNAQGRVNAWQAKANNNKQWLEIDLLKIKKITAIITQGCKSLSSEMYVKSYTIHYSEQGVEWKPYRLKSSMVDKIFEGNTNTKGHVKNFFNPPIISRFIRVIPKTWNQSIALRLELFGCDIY
The description is as above.

The next experiment deals with T4, activated factor V (FVa) (human, UniProt P12259 29-737; P12259 1574-2224).
T4 construct: coagulation factor V heavy chain (HC; domains A1-A2); coagulation factor V light chain (LC; domains A3-C1-C2); source: prepared by treatment of FV-short (BHK cells) with thrombin, purified
T4 sequence (looked up) 1: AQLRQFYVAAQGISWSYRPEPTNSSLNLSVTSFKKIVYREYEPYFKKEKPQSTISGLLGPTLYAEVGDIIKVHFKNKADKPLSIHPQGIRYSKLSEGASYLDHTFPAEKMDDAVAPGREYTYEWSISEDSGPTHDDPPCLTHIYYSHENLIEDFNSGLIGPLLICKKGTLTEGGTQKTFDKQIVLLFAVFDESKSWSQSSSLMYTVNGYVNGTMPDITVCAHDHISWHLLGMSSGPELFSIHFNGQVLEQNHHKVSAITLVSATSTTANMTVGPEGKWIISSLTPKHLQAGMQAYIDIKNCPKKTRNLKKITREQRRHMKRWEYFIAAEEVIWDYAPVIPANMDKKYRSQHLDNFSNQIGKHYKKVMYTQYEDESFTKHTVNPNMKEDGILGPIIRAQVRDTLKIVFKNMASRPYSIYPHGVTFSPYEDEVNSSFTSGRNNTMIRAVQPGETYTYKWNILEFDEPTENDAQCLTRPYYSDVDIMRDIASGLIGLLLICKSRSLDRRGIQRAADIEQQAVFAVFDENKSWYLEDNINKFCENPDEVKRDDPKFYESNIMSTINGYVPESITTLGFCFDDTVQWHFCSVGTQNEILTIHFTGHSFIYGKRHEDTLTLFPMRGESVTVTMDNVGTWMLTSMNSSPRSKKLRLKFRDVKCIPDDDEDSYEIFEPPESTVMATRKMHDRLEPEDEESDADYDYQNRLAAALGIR
T4 sequence (looked up) 2: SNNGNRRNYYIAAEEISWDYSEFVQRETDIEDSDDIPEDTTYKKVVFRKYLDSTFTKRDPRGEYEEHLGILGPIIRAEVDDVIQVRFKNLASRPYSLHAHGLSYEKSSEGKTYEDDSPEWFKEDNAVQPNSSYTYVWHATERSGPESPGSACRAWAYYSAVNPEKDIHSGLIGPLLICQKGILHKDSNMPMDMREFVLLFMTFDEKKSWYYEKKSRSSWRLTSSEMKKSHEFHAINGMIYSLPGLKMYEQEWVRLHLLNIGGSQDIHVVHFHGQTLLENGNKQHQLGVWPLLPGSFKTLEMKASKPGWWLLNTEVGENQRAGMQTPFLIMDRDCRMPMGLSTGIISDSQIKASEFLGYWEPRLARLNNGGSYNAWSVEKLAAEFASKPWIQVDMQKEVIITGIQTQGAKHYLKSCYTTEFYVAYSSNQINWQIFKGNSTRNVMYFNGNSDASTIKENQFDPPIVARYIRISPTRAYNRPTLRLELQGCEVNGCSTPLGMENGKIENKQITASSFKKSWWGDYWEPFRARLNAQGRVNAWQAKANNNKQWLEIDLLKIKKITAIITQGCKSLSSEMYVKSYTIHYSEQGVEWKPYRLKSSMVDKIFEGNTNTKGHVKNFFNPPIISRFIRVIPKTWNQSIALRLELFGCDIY
The experiment is described as above.

In experiment [5] the target is T2, FV-short (factor V isoform with …). Described as above. The source holds these as a separate data set.
Experiment [6] has as its target T1, FV-short-QQ (FV-short with Arg709 and …). The experiment is described as above. The source holds these as a separate data set.
Experiment [7] concerns the target T3, FV-short-RQ∗ (FV-short-RQ precleaved at …). The experiment is described as above. This is another data set of the same source.
Experiment [8] addresses T5, FV-short-QR∗ (FV-short-QR precleaved at Arg1545 with RVV-V) (human, UniProt P12259 29-1573; P12259 1574-2224, Δ756–1458 | Arg^709 replaced with Gln).
T5 construct: coagulation factor V heavy chain joined to the shortened B-domain with AR2; coagulation factor V light chain (LC), released by cleavage at Arg1545; also called FV-short cleaved at Arg1545; source: FV-short-QR (BHK cells, purified), 300 nM incubated with 2 nM RVV-V 30 min at 37 °C
T5 sequence (looked up) 1: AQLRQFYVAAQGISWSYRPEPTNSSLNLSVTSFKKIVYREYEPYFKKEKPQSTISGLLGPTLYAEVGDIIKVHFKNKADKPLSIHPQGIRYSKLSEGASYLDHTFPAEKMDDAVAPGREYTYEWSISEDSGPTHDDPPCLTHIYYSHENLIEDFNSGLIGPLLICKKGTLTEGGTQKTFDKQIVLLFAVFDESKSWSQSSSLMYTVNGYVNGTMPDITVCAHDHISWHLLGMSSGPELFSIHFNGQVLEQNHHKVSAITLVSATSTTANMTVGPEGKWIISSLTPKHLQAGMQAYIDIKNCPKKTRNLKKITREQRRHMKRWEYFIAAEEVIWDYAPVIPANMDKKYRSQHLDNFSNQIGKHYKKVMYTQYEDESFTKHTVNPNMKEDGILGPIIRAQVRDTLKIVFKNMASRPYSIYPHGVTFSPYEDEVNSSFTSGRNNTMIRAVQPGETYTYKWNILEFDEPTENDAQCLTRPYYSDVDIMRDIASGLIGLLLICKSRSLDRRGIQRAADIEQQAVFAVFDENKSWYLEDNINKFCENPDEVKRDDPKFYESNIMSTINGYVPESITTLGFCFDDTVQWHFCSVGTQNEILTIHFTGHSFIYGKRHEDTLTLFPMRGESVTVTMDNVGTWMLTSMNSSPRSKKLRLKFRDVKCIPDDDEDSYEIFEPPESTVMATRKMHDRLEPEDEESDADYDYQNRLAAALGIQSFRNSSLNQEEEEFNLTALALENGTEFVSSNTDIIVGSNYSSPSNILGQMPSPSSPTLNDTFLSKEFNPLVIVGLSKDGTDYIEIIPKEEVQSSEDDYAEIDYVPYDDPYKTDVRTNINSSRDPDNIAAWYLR
T5 sequence (looked up) 2: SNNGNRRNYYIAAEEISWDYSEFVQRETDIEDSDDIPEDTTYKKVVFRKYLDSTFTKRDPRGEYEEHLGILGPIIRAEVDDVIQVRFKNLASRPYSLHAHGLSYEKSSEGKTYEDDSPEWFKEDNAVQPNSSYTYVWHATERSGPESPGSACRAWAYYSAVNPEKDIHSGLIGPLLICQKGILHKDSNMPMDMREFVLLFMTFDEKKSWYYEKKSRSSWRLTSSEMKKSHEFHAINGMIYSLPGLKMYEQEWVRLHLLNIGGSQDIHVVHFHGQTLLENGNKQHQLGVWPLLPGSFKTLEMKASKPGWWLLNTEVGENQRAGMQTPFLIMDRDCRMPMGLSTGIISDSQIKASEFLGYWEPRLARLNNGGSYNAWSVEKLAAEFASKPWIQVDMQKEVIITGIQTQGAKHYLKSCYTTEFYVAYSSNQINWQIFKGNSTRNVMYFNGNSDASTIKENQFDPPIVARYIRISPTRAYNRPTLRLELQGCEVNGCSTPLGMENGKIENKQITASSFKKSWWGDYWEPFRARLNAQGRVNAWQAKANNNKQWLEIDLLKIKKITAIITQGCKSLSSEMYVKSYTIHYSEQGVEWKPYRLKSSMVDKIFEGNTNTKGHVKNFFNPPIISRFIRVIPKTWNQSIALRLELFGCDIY
The description is as above.

Experiment [9] addresses T2, FV-short (factor V isoform with …). In words: fluorescence polarisation; steady-state anisotropy; FV species (0–100 nM) titrated into 20 nM OG488-TFPIα-BR and 50 μM PCPS, assay buffer (20 mM HEPES, 0.15 M NaCl, 5 mM CaCl2, 0.1% PEG 8000, pH 7.4), 25 °C; fit to independent, noninteracting sites.
In experiment [10] the target is T3, FV-short-RQ∗ (FV-short-RQ precleaved at …). The experiment is described as above.

Ends that are not written are not given here.

B1: TFPIα-BR, fragment containing the BR sequence of TFPIα (domain or fragment)
chain: KKGFIQRISKGGLIKTKRKRKKQRVKIAYEEIFVKNM
modifications: limits not printed (refs 17, 18); taken as the whole C-terminal tail after Kunitz 3 (mature 240-276); expressed in E. coli, unglycosylated
What is called Kd is the constant that tells how readily two partners part at equilibrium. As usually defined, the Ki is the equilibrium dissociation constant of an inhibitor or competing ligand from its target. The low end stands for higher affinity, the high end for lower affinity. Consider B1, for which, in [1], the Kd is 0.00225 ± 0.0002 µM. The Ki in experiment [2] was 0.0198 µM; in experiment [3], 0.0215 µM; in [4], 0.0861 µM; with activated factor V (FVa), more than 7 µM; in experiment [5], 0.0236 µM; in [6] it was 0.0234 µM. For the same molecule, the Ki in experiment [7] was 0.0839 µM; in experiment [8], more than 7 µM.

In the case of {C(Oregon Green488 maleimide)}-KKGFIQRISKGGLIKTKRKRKKQRVKIAYEEIFVKNM (domain or fragment) [OG488-TFPIα-BR, TFPIα-BR modified with Oregon Green488 maleimide], the Kd in experiment [9] is 0.00071 ± 0.00011 µM; in experiment [10] it was 0.00216 ± 0.00025 µM.
